Positions count from the first letter of the chain named.

The chains are these.
B1: unnamed (protein)
chain 1: QMQLVESGGGVVQPGRSLRLSCAASGFTFRTYGMHWVRQAPGKGLEWVAVIWYDGSNKHYADSVKGRFTITRDNSKNTLNLQMNSLRAEDTAVYYCARSPRYDEYYEAFDVWGQGTMVTVSS
chain 2: SYVLTQPPSVSVAPGQTARITCGGNNLGSKSVHWYQQKPGQAPVLVVYDDSDRPSWIPERFSGSNSGNTATLTISRGEAGDEADYYCQVWDSSSDHVVFGGGTKLTVL
B2: unnamed (protein)
chain 1: B1 chain 1 with S99A, E104D, Y105D, Y106W
chain 2: B1 chain 2
B3: unnamed (protein)
chain 1: B1 chain 1 with S99A, D103Y, E104W, Y106W
chain 2: B1 chain 2
B4: unnamed (protein)
chain 1: B1 chain 1 with E104W
chain 2: B1 chain 2
B5: unnamed (protein)
chain 1: B1 chain 1 with S99A, D103Y, E104D, Y106L
chain 2: B1 chain 2
B6: unnamed (protein)
chain 1: B1 chain 1 with Y106W
chain 2: B1 chain 2
B7: unnamed (protein)
chain 1: B1 chain 1 with S99A, E104W, Y105T
chain 2: B1 chain 2
B8: unnamed (protein)
chain 1: B1 chain 1 with S99A, E104D, Y105A
chain 2: B1 chain 2
B9: unnamed (protein)
chain 1: B1 chain 1 with S99A, E104D, Y106L
chain 2: B1 chain 2
B10: unnamed (protein)
chain 1: B1 chain 1 with S99A, E104Y, Y105E
chain 2: B1 chain 2
B11: unnamed (protein)
chain 1: B1 chain 1 with S99A, E104Y
chain 2: B1 chain 2
B12: unnamed (protein)
chain 1: B1 chain 1 with S99A, Y105R, Y106W
chain 2: B1 chain 2
B13: unnamed (protein)
chain 1: B1 chain 1 with S99A, D103Y, Y106W
chain 2: B1 chain 2
B14: unnamed (protein)
chain 1: B1 chain 1 with E104Y
chain 2: B1 chain 2
B15: unnamed (protein)
chain 1: B1 chain 1 with S99A, Y106W
chain 2: B1 chain 2
B16: unnamed (protein)
chain 1: B1 chain 1 with S99A, E104F
chain 2: B1 chain 2
B17: unnamed (protein)
chain 1: B1 chain 1 with S99A, E104W, Y105A
chain 2: B1 chain 2
B18: unnamed (protein)
chain 1: B1 chain 1 with S99A, E107D
chain 2: B1 chain 2
B19: unnamed (protein)
chain 1: B1 chain 1 with S99A, Y105H
chain 2: B1 chain 2

In the experiment the target is TSLP, Q969D9. Kind of experiment: Kd (SPR).
As to B1, the equilibrium dissociation constant (Kd) stood at 242 nM. In other words, the sub-micromolar range.
For B2 the value was 82.7 nM; for B3, 23.6 nM.
For B4 the value was 122 nM; for B5, 22.6 nM; for B6, 369 nM.
For B7 the value was 128 nM; for B8, 99.6 nM.
For the molecule B9, the Kd is 99.9 nM.
Molecule B10 came in with a Kd of 104 nM.
To B11 belongs 138 nM; to B12, 494 nM.
To B13 belongs 29.2 nM.
To B14 belongs 337 nM; to B15, 84.9 nM; to B16, 116 nM.
Molecule B17 displayed a Kd of 404 nM. Against the preceding molecule, the Kd is about 3.5-fold higher.
B18 returned a Kd of 293 nM.
For B19 the value was 168 nM.

For orientation: Kd means the free concentration of one partner at which half of the binding sites on the other are occupied at equilibrium, for simple one-to-one binding. A low value points to a tighter complex.

Source of the values: the FLAb antibody collection (doi:10.1101/2023.12.08.570889).
